Legend:
[1] = tested on: cerebellar granule neurons (CGNs); test: FM4-64 SV turnover in transfected cerebellar granule neurons (Example 1); assay type: cell-based, rat; conditions: for total SV recycling pool (FM4-64): two sequential KCl stimuli
Protocol: Primary cerebellar granule neuron (CGN) cultures were prepared from 7-day old Sprague-Dawley rat pups as previously described (Tan et al. 2003). In brief, neurons were plated on poly-D-lysine coated glass coverslips at a density of 1.5×10^5 cells/coverslip. Neurons were cultured in MEM containing Earle's salts plus 10% (v/v) foetal calf serum, 25 mM KCl, 30 mM glucose, 2 mM glutamine, 100 U/ml penicillin and 100 μg/ml streptomycin at 37° C., in a humidified atmosphere of 5% CO2. The culture medium was supplemented with 10 μM cytosine arabinoside after 24 hours. Transfections were carried out using an established calcium phosphate precipitation protocol. CGNs were transiently transfected with 1.5 μg of DNA between 7-10 days in vitro and were used 48 h later.
The effect of overexpression of dynamin I-GFP constructs on SV recycling in CGNs was monitored using the styryl dye FM4-64 (Molecular Probes). The extent of FM4-64 loading was quantified by normalising the fluorescence value at the start of stimulation to an arbitrary value and monitoring the total decrease on unloading with a dual KCl stimulus. The rate of FM4-64 unloading (as a measure of SV exocytosis) was estimated by determining the time taken for individual nerve terminals to lose 50% of their dye content on stimulation of unloading. These values were normalised to untransfected nerve terminals within the same field of view. SV exocytosis and recycling was also monitored using the pH-sensitive VAMP-GFP (synaptopHluorin). Dynamin constructs linked to mCerulean rather than to GFP were used in this part of the study. CGNs were co-transfected with synaptopHluorin and either DynI^WT-mCerulean, DynI^dmA-mCerulean or Dyn^dmE-mCerulean and stimulated with 50 mM KCl for 20 sec. The evoked synaptopHluorin response was recorded at 500 nm excitation and 510-550 nm emission (mCerulean fluorescence was not detectable at this wavelength). Co-expression of dynamin I was confirmed by recording at 430 nm excitation. Responses were analysed by calculating the increased fluorescence of synaptopHluorin over baseline for individual nerve terminals and then normalising the maxima and minima to 1 and 0.
To show the key role of the phosphorylation sites by independent methods in cultured neurons their role in SV turnover in nerve terminals of CGNs transfected with dynamin I-GFP was examined. SV turnover in neurons transfected with DynI^WT-GFP was indistinguishable from that in untransfected neurons (FIG. 6a-c). […] The extent of HM4-64 accumulation and thus SV turnover, was quantified from the change in fluorescence (AF) by unloading the CGN terminals with two sequential KCl stimuli (S1 and S2) (FIG. 6j). The total SV recycling pool was reduced by approximately 70% in CGNs transfected with DynI^dmA-GFP (28±3.5% of control) and 40% with DynI^dmE-GFP (64.4±6.2% of control) (FIG. 6k). However, transfection of DynI^WT-GFP had no detectable effect (100.1±5.2% of control, FIG. 6k).

[2] = tested on: cerebellar granule neurons (CGNs); test: FM4-64 synaptic vesicle recycling in transfected CGNs (Example 2); assay type: cell-based, rat; conditions: single 50 mM KCl stimulus
Protocol: The effect of overexpression of dynamin constructs on synaptic vesicle recycling in CGNs was monitored using the styryl dye FM4-64. Neurons were removed from the culture medium and left to repolarise for 10 min in incubation medium (170 mM NaCl, 3.5 mM KCl, 0.4 mM KH2PO4, 20 mM TES (N-tris[hydroxy-methyl]-methyl-2-aminoethane-sulphonic acid), 5 mM NaHCO3, 5 mM glucose, 1.2 mM Na2SO4, 1.2 mM MgCl2, 1.3 mM CaCl2, pH 7.4). Neurons were then loaded with FM4-64 by evoking SV recycling using KCl stimulation medium (incubation medium supplemented with 50 mM KCl and 10 μM FM4-64, 50 mM NaCl being removed to maintain osmolarity) for 2 min. Cells were washed with incubation medium and mounted on an epifluorescence microscope (Olympus IX81). After 10 min, FM4-64 was unloaded from the cells by exposure to a 30 s pulse of stimulation medium. Transfected neurons were visualised using a Olympus Plan-Apochromat x40 objective at 480 nm excitation and a band-pass emission filter of 515-555 nm. FM4-64 unloading was monitored at 555 nm excitation and a long pass emission filter of 600 nm. The decrease in fluorescence intensity of FM4-64 loaded nerve terminals on stimulation was visualised using a Hammamatsu Orca-ERG CCD digital camera (Hammamatsu City, Japan) and Metamorph 6.3 imaging software (Molecular Devices, Downingtown, Pa.). The extent of FM4-64 unloading was quantified by normalising the fluorescence value at the start of stimulation to an arbitrary value and monitoring the total decrease in fluorescence on unloading with the KCl stimulus. The kinetics of FM4-64 unloading were estimated by normalising the start and completion of unloading to 1 and 0 respectively. Other methods employed in this study are as described in Example 1.
Synaptic vesicle turnover in neurons transfected with DynI-WT-GFP was indistinguishable from that in untransfected neurons. […] The extent of synaptic vesicle turnover was quantified by unloading the terminals with a single 50 mM KCl stimulus, which is considered mild. The total synaptic vesicle recycling pool was unaffected in CGNs transfected with DynI-WT-GFP, while after transfection with DynI-2B-GFP it was reduced. The inhibition can be solely accounted for by an effect on SV endocytosis, since there was no effect on the kinetics of dye unloading. Next, the effects of DynI-PB2-GFP and DynI-3B-GFP on SVE were examined. These two mutants were chosen since they specifically fail to bind syndapin I and endophilin I, respectively, providing a clear distinction between them.
Again, there was no effect on exocytosis, indicating an inhibition of SVE.

| Molecule | reduction of total SV recycling pool / SV turnover [1] | total SV recycling pool (FM4-64) [1] | total synaptic recycling pool (FM4-64) [2] |
| --- | --- | --- | --- |
| DynI^dmA-GFP: Transfected GFP-tagged dynamin I double mutant, Ser-774 and Ser-778 to Ala (non-phosphorylatable) (protein, left off: large carriers) MGNRGMEDLIPLVNRLQDAFSAIGQNADLDLPQIAVVGGQSAGKSSVLENFVGRDFLPRGSGIVTRRPLVLQLVNSTTEYAEFLHCKGKKFTDFEEVRLEIEAETDRVTGTNKGISPVPINLRVYSPHVLNLTLVDLPGMTKVPVGDQPPDIEFQIRDMLMQFVTKENCLILAVSPANSDLANSDALKIAKEVDPQGQRTIGVITKLDLMDEGTDARDVLENKLLPLRRGYIGVVNRSQKDIDGKKDITAALAAERKFFLSHPSYRHLADRMGTPYLQKVLNQQLTNHIRDTLPGLRNKLQSQLLSIEKEVDEYKNFRPDDPARKTKALLQMVQQFAVDFEKRIEGSGDQIDTYELSGGARINRIFHERFPFELVKMEFDEKELRREISYAIKNIHGIRTGLFTPDLAFEATVKKQVQKLKEPSIKCVDMVVSELTSTIRKCSEKLQQYPRLREEMERIVTTHIREREGRTKEQVMLLIDIELAYMNTNHEDFIGFANAQQRSNQMNKKKTSGNQDEILVIRKGWLTINNIGIMKGGSKEYWFVLTAENLSWYKDDEEKEKKYMLSVDNLKLRDVEKGFMSSKHIFALFNTEQRNVYKDYRQLELACETQEEVDSWKASFLRAGVYPERVGDKEKASETEENGSDSFMHSMDPQLERQVETIRNLVDSYMAIVNKTVRDLMPKTIMHLMINNTKEFIFSELLANLYSCGDQNTLMEESAEQAQRRDEMLRMYHALKEALSIIGDINTTTVSTPMPPPVDDSWLQVQSVPAGRRAPTSAPTPQRRAPAVPPARPGSRGPAPGPPPAGSALGGAPPVPSRPGASPDPFGPPPQVPSRPNRAPPGVPSRSGQASPSRPESPRPPFDL | approximately 70% | 28±3.5 % of control | – |
| DynI^dmE-GFP: Transfected GFP-tagged dynamin I double mutant, Ser-774 and Ser-778 to Glu (pseudo-phosphorylation) (protein, left off: large carriers) MGNRGMEDLIPLVNRLQDAFSAIGQNADLDLPQIAVVGGQSAGKSSVLENFVGRDFLPRGSGIVTRRPLVLQLVNSTTEYAEFLHCKGKKFTDFEEVRLEIEAETDRVTGTNKGISPVPINLRVYSPHVLNLTLVDLPGMTKVPVGDQPPDIEFQIRDMLMQFVTKENCLILAVSPANSDLANSDALKIAKEVDPQGQRTIGVITKLDLMDEGTDARDVLENKLLPLRRGYIGVVNRSQKDIDGKKDITAALAAERKFFLSHPSYRHLADRMGTPYLQKVLNQQLTNHIRDTLPGLRNKLQSQLLSIEKEVDEYKNFRPDDPARKTKALLQMVQQFAVDFEKRIEGSGDQIDTYELSGGARINRIFHERFPFELVKMEFDEKELRREISYAIKNIHGIRTGLFTPDLAFEATVKKQVQKLKEPSIKCVDMVVSELTSTIRKCSEKLQQYPRLREEMERIVTTHIREREGRTKEQVMLLIDIELAYMNTNHEDFIGFANAQQRSNQMNKKKTSGNQDEILVIRKGWLTINNIGIMKGGSKEYWFVLTAENLSWYKDDEEKEKKYMLSVDNLKLRDVEKGFMSSKHIFALFNTEQRNVYKDYRQLELACETQEEVDSWKASFLRAGVYPERVGDKEKASETEENGSDSFMHSMDPQLERQVETIRNLVDSYMAIVNKTVRDLMPKTIMHLMINNTKEFIFSELLANLYSCGDQNTLMEESAEQAQRRDEMLRMYHALKEALSIIGDINTTTVSTPMPPPVDDSWLQVQSVPAGRREPTSEPTPQRRAPAVPPARPGSRGPAPGPPPAGSALGGAPPVPSRPGASPDPFGPPPQVPSRPNRAPPGVPSRSGQASPSRPESPRPPFDL | ~40% | 64.4±6.2 % of control | – |
| DynI-PB2-GFP: GFP-tagged dynamin I with Arg-772 and Arg-773 mutated to Glu; fails to bind syndapin I (protein, left off: large carriers) MGNRGMEDLIPLVNRLQDAFSAIGQNADLDLPQIAVVGGQSAGKSSVLENFVGRDFLPRGSGIVTRRPLVLQLVNSTTEYAEFLHCKGKKFTDFEEVRLEIEAETDRVTGTNKGISPVPINLRVYSPHVLNLTLVDLPGMTKVPVGDQPPDIEFQIRDMLMQFVTKENCLILAVSPANSDLANSDALKIAKEVDPQGQRTIGVITKLDLMDEGTDARDVLENKLLPLRRGYIGVVNRSQKDIDGKKDITAALAAERKFFLSHPSYRHLADRMGTPYLQKVLNQQLTNHIRDTLPGLRNKLQSQLLSIEKEVDEYKNFRPDDPARKTKALLQMVQQFAVDFEKRIEGSGDQIDTYELSGGARINRIFHERFPFELVKMEFDEKELRREISYAIKNIHGIRTGLFTPDLAFEATVKKQVQKLKEPSIKCVDMVVSELTSTIRKCSEKLQQYPRLREEMERIVTTHIREREGRTKEQVMLLIDIELAYMNTNHEDFIGFANAQQRSNQMNKKKTSGNQDEILVIRKGWLTINNIGIMKGGSKEYWFVLTAENLSWYKDDEEKEKKYMLSVDNLKLRDVEKGFMSSKHIFALFNTEQRNVYKDYRQLELACETQEEVDSWKASFLRAGVYPERVGDKEKASETEENGSDSFMHSMDPQLERQVETIRNLVDSYMAIVNKTVRDLMPKTIMHLMINNTKEFIFSELLANLYSCGDQNTLMEESAEQAQRRDEMLRMYHALKEALSIIGDINTTTVSTPMPPPVDDSWLQVQSVPAGEESPTSSPTPQRRAPAVPPARPGSRGPAPGPPPAGSALGGAPPVPSRPGASPDPFGPPPQVPSRPNRAPPGVPSRSGQASPSRPESPRPPFDL | – | – | 59.5±4.3 % of control |

— patent US20080306007A1, “AGENTS FOR PROPHYLAXIS OR TREATMENT OF NEUROLOGICAL RELATED DISEASES AND CONDITIONS” (Newcastle Innovation Limited, priority 2007, published 2008)
